In the supplement of paper PMC10567573 one finds protein stability index data, which are given here for 36 sequences.

This data set can be described thus: protein stability index of a GFP-peptide fusion (GPS, HEK-293T) (PSI 1-6); higher = more stable. The settings on record: c terminus: a fixed tail appended.

± gives the standard deviation.
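Also: 24-mer peptide tiles fused after GFP, lentivirally expressed, FACS-sorted into six equal bins by GFP/DsRed ratio, decoded by Illumina sequencing, PSI is the read-weighted mean bin number.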

Take HESVCKYYLCGFCPAELFTNTRSD [LUC7L3]: the protein stability index turned out to be 2.17 ± 0.33 (treatment: DMSO) and 2.54 ± 0.29 (treatment: MLN4924 1 uM, 8 h).

For HGAHKHHPIEEAAEEHREKLLKQM [TRIM43], the protein stability index was determined as 5.17 ± 0.24 (treatment: DMSO) and 5.14 ± 0.14 (treatment: MLN4924 1 uM, 8 h).

Consider HHDKVQSLCYLQLTRQLVSCSSDG [WDFY1], for which the protein stability index reads like this: (treatment: DMSO) 2.2 ± 0.36; (treatment: MLN4924 1 uM, 8 h) 2.06 ± 0.28.

With HKQLLLFHNAVSAYFAGNQKQLEQ [ARFIP2], the protein stability index is, setting by setting: (treatment: DMSO) 2.19 ± 0.45; (treatment: MLN4924 1 uM, 8 h) 2.17 ± 0.18.

HLEVKFMNPYNAVLTKKFQVTMRG [FBXO39] registered a protein stability index (treatment: DMSO) of 2.17 ± 0.22 and a protein stability index (treatment: MLN4924 1 uM, 8 h) of 2.28 ± 0.22.

On to HLKKVASRYQNNIKNDKYGPWLEW [PRIM1], for which the protein stability index runs as follows: (treatment: DMSO) 2.23 ± 0.38; (treatment: MLN4924 1 uM, 8 h) 2.3 ± 0.25.

HLVPVIEMWADQLTSLKDLYKSLK [CEP70]: the protein stability index was found to be 2.47 ± 0.5 (treatment: DMSO) and 2.32 ± 0.39 (treatment: MLN4924 1 uM, 8 h).

For HMLLNTTLNIKETDSKELSMAKEV [ZBED1], the protein stability index reads like this: (treatment: DMSO) 4.26 ± 0.17; (treatment: MLN4924 1 uM, 8 h) 4.35 ± 0.2.

With HPAFLPQRQAIKGAFYRRAQRLRP [KCNG1], the protein stability index reads like this: (treatment: DMSO) 3.32 ± 0.37; (treatment: MLN4924 1 uM, 8 h) 3.58 ± 0.33.

Turning to HPVNPPYYIPLVELVPHPETAPTT [CRYL1], the protein stability index was 3.51 ± 0.33 (treatment: DMSO) and 3.51 ± 0.22 (treatment: MLN4924 1 uM, 8 h).

As to HQGEEEGPLDIWAVVKPGNTKEKI [FBXO34], the protein stability index (treatment: DMSO) was 4.6 ± 0.15 and the protein stability index (treatment: MLN4924 1 uM, 8 h) was determined as 4.76 ± 0.27.

Take HRDSSQAIPITELTKSQVQDKPYK [ZNF8]: the protein stability index runs as follows: (treatment: DMSO) 4.96 ± 0.2; (treatment: MLN4924 1 uM, 8 h) 5.1 ± 0.3.

Turning to HRLKLRLAIQEMVSLTSPSAPPTS [PPFIA4], the protein stability index is, setting by setting: (treatment: DMSO) 2.5 ± 0.43; (treatment: MLN4924 1 uM, 8 h) 2.46 ± 0.24.

As to HRLLNMARNNNDPGRLTEALCLEV [RNF180], the protein stability index reads like this: (treatment: DMSO) 3.89 ± 0.33; (treatment: MLN4924 1 uM, 8 h) 3.96 ± 0.28.

As to HRRFCELLPQEQRSVESSLRAQVP [CIB1], the protein stability index reads like this: (treatment: DMSO) 3.63 ± 0.13; (treatment: MLN4924 1 uM, 8 h) 3.66 ± 0.15.

For the sequence HRTHTGERPYGCDECEKAYFYMSC [ZNF649], the protein stability index stood at 2.68 ± 0.17 (treatment: DMSO) and 2.54 ± 0.26 (treatment: MLN4924 1 uM, 8 h).

On to HRWPSNMYLKQLAEYRKYIHSRKC [RHOBTB3], for which the protein stability index was 2.75 ± 0.37 (treatment: DMSO) and 3.19 ± 0.27 (treatment: MLN4924 1 uM, 8 h).

As for HSGEKPFICKECGKAYGWCSELIR [ZNF232], the protein stability index worked out at 2.22 ± 0.25 (treatment: DMSO) and 2.72 ± 0.66 (treatment: MLN4924 1 uM, 8 h).

Take HTEERPFKCNYCGKSFRQRPSLVI [ZNF449]: the protein stability index is, setting by setting: (treatment: DMSO) 2.37 ± 0.15; (treatment: MLN4924 1 uM, 8 h) 2.44 ± 0.28.

Regarding HVAAAVLRIRSVEGRKKAFSTCGS [OR3A1], the protein stability index is 2.3 ± 0.24 (treatment: DMSO) and 2.22 ± 0.34 (treatment: MLN4924 1 uM, 8 h).

On to HVYIGSAGLDWQSLGQMKELGVIF [PLD5], for which the protein stability index by setting is: (treatment: DMSO) 2.49 ± 0.71; (treatment: MLN4924 1 uM, 8 h) 2.58 ± 1.1.

IAAGEVIQRPANAIKEMIENCLDA [MLH1]: the protein stability index runs as follows: (treatment: DMSO) 4.26 ± 0.18; (treatment: MLN4924 1 uM, 8 h) 4.3 ± 0.34.

Turning to IAHRGERRGIGGIFFDDLDSPSKE [CPOX], the protein stability index (treatment: DMSO) came to 4.57 ± 0.4 and the protein stability index (treatment: MLN4924 1 uM, 8 h) turned out to be 4.72 ± 0.21.

ICNNKWFTDTSIILFLNKKDLFEE [GNAI1]: the protein stability index runs as follows: (treatment: DMSO) 3.06 ± 0.97; (treatment: MLN4924 1 uM, 8 h) 2.83 ± 0.45.

In the case of IDAVPVDENLFTGEDLDELEEELN [ZC3H15], the protein stability index runs as follows: (treatment: DMSO) 5.53 ± 0.21; (treatment: MLN4924 1 uM, 8 h) 5.51 ± 0.19.

Take IEVFDPDANTWRLYGGMNYRRLGG [KLHL20]: the protein stability index is 2.38 ± 0.45 (treatment: DMSO) and 2.17 ± 0.26 (treatment: MLN4924 1 uM, 8 h).

As for IFAGVHDEKAKPRDRQQAPGLGQE [TLE6], the protein stability index worked out at 4.73 ± 0.2 (treatment: DMSO) and 4.81 ± 0.065 (treatment: MLN4924 1 uM, 8 h).

In the case of IFNNVMTLCAMLPLLLFTYLNSFL [SLC29A1], the protein stability index was 3.25 ± 0.25 (treatment: DMSO) and 3.23 ± 0.2 (treatment: MLN4924 1 uM, 8 h).

For the sequence IFSVTALDPDSKENAQIIYSLAED [PCDHGA10], the protein stability index (treatment: DMSO) worked out at 3.1 ± 0.47 and the protein stability index (treatment: MLN4924 1 uM, 8 h) was 3.21 ± 0.19.

On to IFTTPNFDETSSATTISTSEDGSY [KMT2E], for which the protein stability index is, setting by setting: (treatment: DMSO) 4.75 ± 0.13; (treatment: MLN4924 1 uM, 8 h) 4.67 ± 0.26.

In the case of IFYFVIQRKKWVDLAWMITFYVRF [FADS1], the protein stability index runs as follows: (treatment: DMSO) 2.6 ± 0.72; (treatment: MLN4924 1 uM, 8 h) 2.93 ± 0.94.

Take IGEEVRQLMEKLREKQLSHSLRAV [BEX1]: the protein stability index (treatment: DMSO) came to 2.68 ± 0.14 and the protein stability index (treatment: MLN4924 1 uM, 8 h) is 2.82 ± 0.22.

For IIYKQTKGGVQNFNKDLVQDCGFE [CEP70], the protein stability index runs as follows: (treatment: DMSO) 1.96 ± 0.42; (treatment: MLN4924 1 uM, 8 h) 2.66 ± 0.22.

With IKKKGWRRSSLVITTKIFWGGKAE [KCNAB2], the protein stability index runs as follows: (treatment: DMSO) 2.51 ± 0.55; (treatment: MLN4924 1 uM, 8 h) 2.75 ± 0.64.

With IKPSNIFISRTSIPNAASEEGDED [WEE1], the protein stability index runs as follows: (treatment: DMSO) 4.71 ± 0.24; (treatment: MLN4924 1 uM, 8 h) 4.97 ± 0.27.

For IKVEQATKPSFESGRRGPPPPPRS [RBMX], the protein stability index reads like this: (treatment: DMSO) 4.06 ± 0.36; (treatment: MLN4924 1 uM, 8 h) 4.17 ± 0.34.
